Measured values reported in the supplement of paper PMC9170038.

Test system: MS2 coat protein
Experiment: apparent KD of MS2 coat protein; designed switch direction (-1 OFF switch, 1 ON switch): 1; higher = weaker reporter binding
Method in brief: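 Designed RNA switches sharing common flanks were transcribed on Illumina chips by stalled E. coli RNA polymerase. They were titrated with SNAP-549-labelled MS2 coat protein, from 0.7 or 1.5 nM doubling to 3 µM, in Tris-HCl pH 7.5 buffer with KCl, MgCl2, BSA, DTT, tRNA and Tween-20. Titrations ran without input, with 200 uM small-molecule ligand, or with an oligonucleotide input. The apparent KD of each design is the median over its clusters, after curve-fitting of normalised cluster fluorescence.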

[1] = input ligand: microRNA oligo, concentration not stated
[2] = Eterna round: R95, input ligand: FMN 200 uM
[3] = Eterna round: R95, input ligand: microRNA oligo, concentration not stated
[4] = Eterna round: R95, input ligand: none

| Sequence | apparent KD of MS2 coat protein (input ligand: FMN 200 uM) | apparent KD of MS2 coat protein [1] | apparent KD of MS2 coat protein (input ligand: none) | apparent KD of MS2 coat protein [2] | apparent KD of MS2 coat protein [3] | apparent KD of MS2 coat protein [4] |
| --- | --- | --- | --- | --- | --- | --- |
| GGUAGGUUACUACCAAACAUGAGGAUCACCCAUGUAAGUGGGAAGGAUAUGGUACCUUUUAGGUACCAGAAGGUCCAUAUAGUA [JL Fiskers NG3ss - 2 mod 10] (Eterna round: R96, puzzle: Same State NG 3) | 254 nM | 783 nM | 1000 nM | – | – | – |
| UUUCGAUAGAUAGGAUAUCACUUUACAUGAGGAUCACCCAUGUUGGCUGUGCUGAUUAUUAAAACUGAGAAGGAUCUUGAUGAC [JR_SSNG2_Sub003] (Eterna round: R96, puzzle: Same State NG 2) | 25.2 nM | 22 nM | 23.5 nM | – | – | – |
| GUUAAACAUGAGGAUCACCCAUGUAAUCAUAUGGGAGGAUAUGGGAAUUAAUUAAUUAAACCAGAAGGCCUAAUUG [Mat - Same State 1 - D83] (puzzle: Same State 1) | – | – | – | 19.6 nM | 87.4 nM | 92.3 nM |
| GCUAGAAAUAAAGCCAACAUGAGGAUCACCCAUGUAUGUUGGCAGGAUAUCGUAUGCAAAGCAUACGAGAAGGGCUAAACUAGC [Mat - Same State NG 3 - JL Mod - D6] (Eterna round: R96, puzzle: Same State NG 3) | 129 nM | 149 nM | 201 nM | – | – | – |
| AGAUGUUAAUCAGGAUAUGGGCACAUGAGGAUCACCCAUGUAAAUUCGAUACUAUGUGGUCACGUCUAGAAGGGAUGGCUAACA [SameState NG2 #82] (Eterna round: R96, puzzle: Same State NG 2) | 189 nM | 158 nM | 250 nM | – | – | – |
| UGGCUCAGACGAGGAUAUAUGUGAUCACAUGAGGAUCACCCAUGUCUCGAGCUUCGGCUCGAGACAUAGAAGGUGUCUGAGCCU [SSNG2/3-C3] (Eterna round: R96, puzzle: Same State NG 2) | 53.9 nM | 12.2 nM | 6.64 nM | – | – | – |
| GCUAGAAUUAACGCCUACAUGAGGAUCACCCAUGUAUGUAGGCAGGAUAUCGUUUGCUUUGCAAACGAGAAGGGCCUUACUAGC [JL SSNG3 1.11] (Eterna round: R96, puzzle: Same State NG 3) | 22.3 nM | 53.3 nM | 42 nM | – | – | – |
| UUUAGUUGCGGGCAGGAUAUGUAUUAAAAUACAUGAGGAUCACCCAUGUGCGGGUGUAACACCCGACAGAAGGGCCAAUCGCGAC [Laonerce - 13] (puzzle: Same State 2) | – | – | – | – | 220 nM | – |
| GUUACAUGAGGAUCACCCAUGUAUGUGUGGGAGUAAGUGUCUUAGGAUAUCUAGGAUUUAAUUUAAGAGAAGGAAGAUUGUUGU [JMF's solution 50] (Eterna round: R96, puzzle: Same State NG 3) | 89.7 nM | 45.9 nM | 77.4 nM | – | – | – |
| ACAUGAGAGAUAGGAUAUUGUGUACCUACAUGUGACAUGAGGAUCACCCAUGUGGUAAGUAUGAGCAAGAAGGAUCAGAUAUGU [Equivalance 51 - Jieux - Same State NG 2] (Eterna round: R96, puzzle: Same State NG 2) | 23.2 nM | 35.9 nM | 69.5 nM | – | – | – |
| ACAUGAGGAUCACCCAUGUCGCUGGUAUCGGAUACGUAUUACGAGGAUAUGCCGAGGAGUUCCGAGUAGAAGGUGUAAUACAUG [Eternabot solution 40] (Eterna round: R96, puzzle: Same State NG 3) | 178 nM | 90.3 nM | 102 nM | – | – | – |
| CAGCGCUGCCGGGAGGAUAUGCGGUGAUGGACAUGAGGAUCACCCAUGUUAGCGGUAGCAUUACGGCAGAAGGCCCUGCAGCUGC [Soteed Omei mod 1] (puzzle: Same State 2) | – | – | – | 10.9 nM | 12.3 nM | 12.3 nM |
